The target in assay [1] is SARS-CoV-2 RBD (RBD-2) (SARS-CoV-2). The experiment in a line: ELISA.
A further assay concerns the target SARS-CoV-1 RBD (RBD-1) (SARS-CoV-1). The experiment in a line: ELISA.
Assay [2] deals with T1, SARS-CoV-2 spike on pseudovirus or live virus (USA-WA1/2020, WT) (SARS-CoV-2, UniProt P0DTC2 14-1273). As to the kind of experiment: cell-based or functional assay.
The target of assay [3] is T1, SARS-CoV-2 spike on pseudovirus or live …. As to the kind of experiment: cell-based or functional assay. The source holds these as a separate data set.
For assay [4] the target is unchanged. As to the kind of experiment: cell-based or functional assay. The source holds these as a separate data set.
The target of assay [5] is T2, SARS-CoV-1 spike on pseudovirus (SARS-CoV-1, UniProt P59594 14-1255). As to the kind of experiment: cell-based or functional assay.
The target of a further assay is human insulin (human, UniProt P01308 25-54; P01308 90-110). As to the kind of experiment: polyreactivity ELISA.
Assay [6] addresses SARS-CoV-2 RBD (RBD-2) (SARS-CoV-2). As to the kind of experiment: SPR, Fc-captured IgG.
Assay [7] has as its target T1, SARS-CoV-2 spike on pseudovirus or live …. The experiment in a line: cell-based or functional assay. The source holds these as a separate data set.
For assay [8], the target named is T2, SARS-CoV-1 spike on pseudovirus. The experiment in a line: cell-based or functional assay. This is another data set of the same source.
Assay [9] concerns the target T1, SARS-CoV-2 spike on pseudovirus or live …. As to the kind of experiment: cell-based or functional assay. This is another data set of the same source.
The target of assay [10] is T2, SARS-CoV-1 spike on pseudovirus. The experiment in a line: cell-based or functional assay. This is another data set of the same source.
For assay [11], the target named is T3, SARS-CoV-2 RBD (residue 332-527) (SARS-CoV-2, UniProt P0DTC2 332-527).
T3 construct: range 332-527
The experiment in a line: ELISA on truncated S constructs.

Assay [12] has as its target SARS-CoV-2 RBD (RBD-2) (SARS-CoV-2). The experiment in a line: flow, HeLa-ACE2, mAb:RBD=2:1.
Assay [13] has the same target. As to the kind of experiment: flow, HeLa-ACE2, mAb:RBD=4:1.
Assay [14] has the same target. The experiment in a line: SPR.

Data on four molecules can be found in patent publication US20230357364A1 (INTERNATIONAL AIDS VACCINE INITIATIVE, published 2023).

Where two headings read alike, the source gives them in different places.

Sequence of human insulin (P01308 25-54 limits assumed, chain 1 of 2): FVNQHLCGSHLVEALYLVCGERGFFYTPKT
Sequence of human insulin (P01308 90-110 limits assumed, chain 2 of 2): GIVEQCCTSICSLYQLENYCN

B1: L6.dP04E05 (antibody, V domains shown)
VH: EVQLVESGGGLVQPGRSLRLSCAASGFTFDDYAMHWVRQAPGKGLEWVSGISWNSDNIGYADSVKGRFTVSRDNAKNSLYLQMNSLRAEDTALYYCTKDIHRKNDYYDILTGYYRVRYYYYAMDVWGQGTTVTVSS
VL: QSVLTQPPSASGSPGQSVTISCTGTSSDAGGYNYVSWYQQHPGKAPKLMIYEVIKRPSGVPDRFSGSKSGNTASLTVSGLQAEDEADYYCSSFAGTSVVFGGGTKLTVL
notes: human IgG1
B1 showed an EC50 with SARS-CoV-2 RBD (RBD-2) [1] of 0.018 µg/mL. In addition, the EC50 in the assay with SARS-CoV-1 RBD (RBD-1) is above 10 µg/mL. Also, the “fold more potent than L12.bP11A6” value in [2] is around 50 fold. The “neutralization IC50” value in assay [3] was 0.00036 µg/mL. Moreover, in [4], the “PSV in HeLa-ACE2 cells IC50” value was 0.006 µg/mL, the “live virus IC50 (HeLa-ACE2)” value amounted to 0.003 µg/mL and the “live virus IC50 (Vero)” value came to 0.006 µg/mL. Further, the “PSV in HeLa-ACE2 cells IC50” value in [5] is above 25 µg/mL.

B2: L6.P4A3.10 (antibody, V domains shown)
VH: QVQLVQSGAEVKKPGSSVKVSCKAPGGTFSSSAISWVRQAPGQGLEWMGGIIPILDITHYAQKFQGRVTITADKSTSTAFMELSSLRSEDTAVYYCALRNQWDLLVYWGQGTLVTVSS
VL: EIVLTQSPGTLSLSPGERATLSCRASQSVSSSYLAWYQQKPGQAPRLLIYGAESRATGIPDRFSGSGSGTDFTLTISRLEPEDFAVYYCQHYGSSVWTFGQGTKLEIK
In the case of B2, the binding result in the assay with human insulin is “no binding”.

B3: L12.cP08D07 (antibody, V domains shown)
VH: QVQLQESGPGLVKPSETLSLTCTVSGGSISSSSYYWGWIRQPPGKGLEWIGSIYYSGSTYYNPSLKSRVTISVDTSKNQFSLKLSSVTAADTAVYYCARQGDCSTTSCAYDYWGQGTLVTVSS
VL: SYELTQPPSVSVSPGQTARITCSGDALPKQYAYWYQQKPGQAPVLVIYKDSERPSGIPERFSGSSSGTTATLTISGVQAEDEADYYCQSADSSGTYLVVFGGGTKLAVL
notes: human IgG1
Regarding B3, the EC50 in the assay with SARS-CoV-2 RBD (RBD-2) [1] and with SARS-CoV-1 RBD (RBD-1) was above 50 µg/mL throughout. Moreover, the Kd in the assay with SARS-CoV-2 RBD (RBD-2) [6] worked out at 26.8 nM. Further, the koff with SARS-CoV-2 RBD (RBD-2) [6] is 0.017 s⁻¹. Further, the kon with SARS-CoV-2 RBD (RBD-2) [6] came out at 636000 M⁻¹ s⁻¹. Besides, the “PSV neutralization IC50” value in assay [7] was 1.81 µg/mL; in assay [8], above 50 µg/mL; in assay [9], 21.9 µg/mL; in [10], above 50 µg/mL. Further, the “Maximum Plateau of Neutralization” value in assay [9] amounted to 64%. Further, the binding result in assay [11] is given as “no binding”. For the same molecule, the “% inhibition of RBD binding to hACE2” value with SARS-CoV-2 RBD (RBD-2) [12] is 3%; with SARS-CoV-2 RBD (RBD-2) [13], -3.9%. For the same molecule, the “MFI (RBD binding to cell surface)” value in the assay with SARS-CoV-2 RBD (RBD-2) [12] was 10800; with SARS-CoV-2 RBD (RBD-2) [13] it was 11600.

B4: L6.dP03H10 (antibody, V domains shown)
VH: QVQLVQSGAEVKKPGSSVKVSCKASGGTFSIYAITWVRQAPGQGLEWMGGIIPIIGTANYAQKFQGRVTITADKSTSTAYMELSSLRSEDTAVYYCARDFRYCSSTRCYFWFDPWGQGTLVTVSS
VL: DIQMTQSPSSLSASVGDRVTITCRASQNISSYLNWYQQEAGKAPKLLIYAASSLQSGVPSRFSGSGSGTDFTLTISSLQPEDFATYYCQQSYSTPRTFGQGTKVDIK
Turning to B4, the affinity with SARS-CoV-2 RBD (RBD-2) [14], expressed as Kd, was 5.9 nM. Besides, the EC50 with SARS-CoV-2 RBD (RBD-2) [1] is 0.012 µg/mL; with SARS-CoV-1 RBD (RBD-1) it was above 50 µg/mL. For the same molecule, the “Maximum Plateau of Neutralization” value in [9] was found to be 100%. Moreover, the “PSV neutralization IC50” value was 0.001 µg/mL in assay [9] and above 50 µg/mL in assay [10]. The “neutralization IC50” value in [3] came to 0.0017 µg/mL.
